Assay [1] concerns the target BAG3 with the first IPV motif mutated to GPG (IPV1) (UniProt O95817). The experiment in a line: ITC. A general note: Isothermal titration calorimetry measures the heat released or taken up as one component is titrated into another.
Assay [2] addresses BAG3 Δ200–213 (UniProt O95817). The experiment in a line: ITC.
The target of assay [3] is BAG3 Δ87–101 (UniProt O95817). The experiment in a line: ITC.
The target of assay [4] is Hsp70 NBD (Homo sapiens) (UniProt P0DMV8). To be noted: cited from earlier work.
Assay [5] deals with Hsp27-3D, triple phospho-mimetic mutant of Hsp27 (human) (UniProt P04792). Briefly: flow cytometry protein interaction assay. A general note: Flow cytometry measures light scatter and fluorescence of single cells or particles in a stream.
Assay [6] addresses Hsp27c, truncated Hsp27 with only the core α-crystallin domain (human). Briefly: flow cytometry protein interaction assay.
Assay [7] concerns the target BAG3 Δ87–101 & Δ200–213 (UniProt O95817 1-575, Δ87–101 | Δ200–213, Alexa Fluor label in the FCPIA experiments). Briefly: flow cytometry protein interaction assay.

Results on four molecules are retold here after PMC5186407 (Journal of molecular biology, 2016).

A value given as a limit tells only on which side of the number the result lay.

Chain of Hsp70 NBD (Homo sapiens) (P0DMV8 2-386): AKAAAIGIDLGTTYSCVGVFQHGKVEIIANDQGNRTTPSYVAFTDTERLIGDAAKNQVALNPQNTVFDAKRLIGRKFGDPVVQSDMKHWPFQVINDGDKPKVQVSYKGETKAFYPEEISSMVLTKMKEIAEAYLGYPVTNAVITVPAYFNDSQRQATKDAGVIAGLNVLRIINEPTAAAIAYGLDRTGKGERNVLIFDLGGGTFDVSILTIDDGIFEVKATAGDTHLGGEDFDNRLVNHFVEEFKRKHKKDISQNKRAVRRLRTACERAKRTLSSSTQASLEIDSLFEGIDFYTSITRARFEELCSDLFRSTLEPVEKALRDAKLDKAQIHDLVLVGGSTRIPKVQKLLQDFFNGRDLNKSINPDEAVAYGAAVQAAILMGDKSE

For “Hsp27c, truncated Hsp27 with only the core α-crystallin domain (domain or fragment)”, the stoichiometry N in assay [1], in assay [2] and in assay [3] was 1 Hsp27c:BAG3 throughout.
In the case of BAG3 (from UniProt O95817), in assay [4], the Kd was 0.01 µM.
Regarding “BAG3 Δ87–101 & Δ200–213 (from UniProt O95817 1-575) (natural protein)”, in assay [5], the Kd was above 50 µM. The fold weakening of the affinity against BAG3 with both IPV motifs in assay [6] was above 25 fold.

B1: Hsp20 (HSPB6) (natural protein, human, UniProt O14558 1-160, looked up)
chain: MEIPVPVQPSWLRRASAPLPGLSAPGRLFDQRFGEGLLEAELAALCPTTLAPYYLRAPSVALPVAQVPTDPGHFSVLLDVKHFSPEEIAVKVVGEHVEVHARHEERPDEHGFVAREFHRRYRLPPGVDPAAVTSALSPEGVLSIQAAPASAQAPPPAAAK
modifications: biotin (EZ-link NHS-Biotin) in the FCPIA experiments
With B1, the dissociation constant Kd in assay [7] was above 50 µM.

Broadly, the stoichiometry N is a count of units in the complex or per binding partner. The Kd is the constant that tells how readily two partners part at equilibrium.
